Results taken from the RNAGym collection of RNA variant scans (doi:10.7554/elife.80360).

B1: Hammerhead Ribozyme (parent)
chain: ACCGGAUGUGCUUUCCGGUCUGAUGAGUCCGUGAGGACGAAACAG

Variants of: B1
Assay: self-cleavage, relative activity (ratio to wild type); higher = more cleavage; co-transcriptional

| Variant | self-cleavage |
| --- | --- |
| C11A C43G | 0.353 |
| C11A C43U | 0.616 |
| C11G U32C | 1.12 |
| C11G U32A | 1.1 |
| C11G U32G | 1.19 |
| C11G A40C | 0.838 |
| C11G A40G | 0.413 |
| C11G A40U | 0.273 |
| C11G G22A | 0.304 |
| C11G G22U | 0.378 |
| C11G G22C | 0.338 |
| C11U G17C | 0.43 |
| C11U G17A | 0.475 |
| C11U G17U | 0.405 |
| C11U A44U | 0.497 |
| C11U A44C | 0.474 |
| C11U A44G | 1.35 |
| C11U U19G | 0.329 |
| C11U U19A | 0.32 |
| C11U U19C | 0.484 |
| C11G A42U | 0.326 |
| C11G A42C | 0.422 |
| C11G A42G | 0.303 |
| C11G G36U | 0.69 |

| Variant | self-cleavage |
| --- | --- |
| C11G G36C | 0.998 |
| C11G G36A | 0.763 |
| C11A G25U | 0.329 |
| C11A G25A | 0.342 |
| C11A G25C | 0.284 |
| C11G A23G | 0.282 |
| C11G A23C | 0.549 |
| C11G A23U | 0.41 |
| C11U A26U | 0.64 |
| C11U A26C | 0.433 |
| C11U A26G | 0.335 |
| C11U C16A | 0.886 |
| C11U C16U | 0.817 |
| C11U C16G | 0.684 |
| U12A A23C | 0.366 |
| U12A A23G | 0.394 |
| U12A A23U | 0.317 |
| C11U G31U | 1.35 |
| C11U G31C | 0.937 |
| C11U G31A | 1.13 |
| C11A A44G | 1.57 |
| C11A A44U | 0.666 |
| C11A A44C | 0.569 |
| C11G A34C | 0.893 |

| Variant | self-cleavage |
| --- | --- |
| C11G A34U | 1.07 |
| C11G A34G | 1.06 |
| C11U G27U | 0.487 |
| C11U G27C | 0.58 |
| C11U G27A | 0.666 |
| C11U C29A | 0.329 |
| C11U C29U | 0.897 |
| C11U C29G | 0.646 |
| C11U G39A | 0.383 |
| C11U G39C | 0.389 |
| C11U G39U | 0.3 |
| C11A G22U | 0.246 |
| C11A G22A | 0.348 |
| C11A G22C | 0.35 |
| C11A G45U | 1.05 |
| C11A G45C | 0.97 |
| C11A G45A | 0.778 |
| C11A C38A | 0.892 |
| C11A C38U | 1.1 |
| C11A C38G | 0.881 |
| U12A A37U | 0.827 |
| U12A A37G | 0.71 |
| U12A A37C | 1.2 |
| U12A A26G | 0.424 |

| Variant | self-cleavage |
| --- | --- |
| U12A A26C | 0.429 |
| U12A A26U | 0.587 |
| C11U U13A | 1.34 |
| C11U U13G | 1.25 |
| C11U U13C | 0.915 |
| C11U G22U | 0.341 |
| C11U G22C | 0.339 |
| C11U G22A | 0.382 |
| C11U G18C | 0.319 |
| C11U G18U | 0.469 |
| C11U G18A | 0.428 |
| C11G G35U | 0.957 |
| C11G G35A | 1.02 |
| C11G G35C | 0.668 |
| C11U U32C | 0.964 |
| C11U U32A | 0.889 |
| C11U U32G | 0.799 |
| C11G U14C | 0.867 |
| C11G U14A | 1.25 |
| C11G U14G | 0.74 |
| C11U A40U | 0.296 |
| C11U A40C | 0.438 |
| C11U A40G | 0.342 |
| C11U G36A | 0.607 |

| Variant | self-cleavage |
| --- | --- |
| C11U G36U | 0.669 |
| C11U G36C | 0.499 |
| C11U C38A | 0.511 |
| C11U C38G | 0.611 |
| C11U C38U | 1.02 |
| C11U | 1.02 |
| C11G | 1.12 |
| C11U G35C | 0.588 |
| C11U G35U | 0.846 |
| C11U G35A | 0.64 |
| C11U U12C | 1.28 |
| C11U U12A | 1.3 |
| C11U U12G | 1.18 |
| U12A A42U | 0.313 |
| U12A A42G | 0.252 |
| U12A A42C | 0.359 |
| C11U A41U | 0.278 |
| C11U A41C | 0.337 |
| C11U A41G | 0.386 |
| U12A C30U | 1.07 |
| U12A C30G | 0.859 |
| U12A C30A | 1.08 |
| C11A U13G | 0.853 |
| C11A U13A | 1.46 |

| Variant | self-cleavage |
| --- | --- |
| C11A U13C | 1.01 |
| C11G U21A | 0.735 |
| C11G U21G | 0.847 |
| C11G U21C | 0.987 |
| C11A U28G | 0.964 |
| C11A U28C | 1.1 |
| C11A U28A | 1.04 |
| C11A A42U | 0.282 |
| C11A A42G | 0.241 |
| C11A A42C | 0.284 |
| C11G G31C | 0.83 |
| C11G G31U | 1.34 |
| C11G G31A | 1.03 |
| C11A U14G | 1.27 |
| C11A U14C | 1.17 |
| C11A U14A | 0.829 |
| C11A G31U | 1.08 |
| C11A G31A | 1.21 |
| C11A G31C | 1.12 |
| C11U U21C | 0.561 |
| C11U U21G | 0.563 |
| C11U U21A | 0.697 |
| C11U U28A | 0.768 |
| C11U U28G | 0.703 |

| Variant | self-cleavage |
| --- | --- |
| C11U U28C | 0.954 |
| C11A A41C | 0.371 |
| C11A A41U | 0.273 |
| C11A A41G | 0.364 |
| C11A G36C | 0.911 |
| C11A G36U | 0.762 |
| C11A G36A | 0.847 |
| U12A C38A | 0.807 |
| C11G G45U | 0.928 |
| C11G G45C | 0.962 |
| C11G G45A | 0.626 |
| C11U C43A | 0.36 |
| C11U C43G | 0.392 |
| C11U C43U | 0.529 |
| C11G C20U | 0.695 |
| C11G C20G | 0.261 |
| C11G C20A | 0.477 |
| C11A U12C | 1.08 |
| C11A U12G | 1.61 |
| C11A U12A | 0.977 |
| C11A U21C | 0.848 |
| C11A U21G | 0.713 |
| C11A U21A | 0.895 |
